Experiments:
hNEPT [1] = test: hNEPT culture exposed to BMP-7: cluster/colony formation and DNA content; type: cell-based, human
Description: Fresh hNEPT preparations were allowed to attach to tissue culture-treated plates for 48 h and subsequently exposed to BMP-7. The rationale behind the use of BMP-7 was that it may help reduce the incidence of EMT in cultured pancreatic exocrine tissue, as EMT has proven an obstacle for the formation of endocrine cells from exocrine cells in a similar setting^7. Control aliquots were cultured in the same conditions but without BMP-7. […] The growth of the colonies in the BMP-7 group was followed by in situ live cell imaging (Incucyte Zoom) (FIG. 1b and FIG. 8). This increase in size was paralleled by an average increase of 4.8-fold in DNA content from the time of attachment to day 12 (n=2), which further evidenced active cell proliferation.
hNEPT culture: Human islets were isolated at the DRI's cGMP facility following methods already described54, and hNEPT samples (2-4 ml) were obtained as an isolation byproduct. […]
Real-time colony growth assessment: In order to observe the formation and growth of the colonies we used an IncuCyteZOOM EssenBiosciences instrument (Ann Arbor, Michigan) within a Symphony Incubator purchased from VWR (Atlanta Ga.). The cells remain in their own culturing flask or plate, where growth can be observed and quantified over time. […]

hNEPT [2] = test: C-peptide content (ELISA, normalised to DNA) of hNEPT; type: cell-based, human; conditions: for induction of C-peptide compared to t=0: n=4, P=0.06
Description: hNEPT culture: Human islets were isolated at the DRI's cGMP facility following methods already described54, and hNEPT samples (2-4 ml) were obtained as an isolation byproduct. The cells were washed and seeded on tissue culture-treated plates in FBS- and trypsin inhibitor-supplemented RPMI 1640 medium (Gibco-Life Technologies, Grand Island, N.Y.). After 48 h, floating cells were removed with fresh medium replacement. The following day, cultures were either treated with 100 ng/ml BMP-7 (ProSpec-Tany TechnoGene; Ness Ziona, Israel) or remained in the starting medium as controls. Cells were allowed to grow 4-5 days and then the serum-containing medium was replaced by serum-free Advanced RPMI 1640 (Gibco-Life Technologies, Grand Island, N.Y.). Four to five days later the cells were either subjected to static incubation to evaluate their ability to respond to changing glucose concentration or collected for further assessments (such as C-peptide content, immunohistochemistry or cellular composition) or transplantation.
Glucose-stimulated insulin release (GSIR) and total insulin determination: GSIR was performed in six-well plate cultures. BMP-7-treated samples and untreated controls were washed twice with DMEM medium containing 2.5 mM glucose (Low glucose medium or L-medium). Upon addition of 2 ml of the same medium, the cells were cultured for 1 h at 37° C. to bring their insulin secretion to baseline. After 2 more washes, 1 ml of L-medium was added and the cells were returned to the incubator for 1 h. At the end of incubation period, the medium was collected and the cells exposed for 1 h to 1 ml of 20 mM glucose DMEM medium (high glucose medium or H-medium). After the collection of the H-medium supernatant, the cells were washed three times with L-medium and cultured again in low glucose conditions for 1 h. As before, supernatant was collected at the end of the incubation period. The second low glucose incubation is necessary to confirm that the cells are responding to glucose concentration changes in a physiological manner and not dumping insulin. After the last incubation, the cells were collected, washed in PBS and lysed with 1 ml of T-Per (Thermo Scientific, Rockford, Ill.). The lysates and the supernatants from GSIR test were evaluated with ELISA for C-peptide content (Mercodia, Uppsala, Sweden) following manufacturer's instructions. DNA content of the lysates was used to normalize the results (Pico-Green dsDNA Assay Kit, Life Technologies-Molecular Probes, Grand Island, N.Y.).

B1: BMP-7: 35 kDa homodimeric protein of the TGF-β superfamily; FDA-approved agent; human mature chain SEQ ID NO:1/2 (protein, listed as Homo sapiens)
chain: IRSTGSKQRSQNRSKTPKNQEALRMANVAENSSSDQRQACKKHELYVSFRDLGWQDWIIAPEGYAAYYCEGECAFPLNSYMNATNHAIVQTLVHFINPETVPKPCCAPTQLNAISVLYFDDSSNVILKKYRNMVVRACGCH
modifications: homodimer; human mature chain of BMP-7 (NCBI Reference Sequence NM_001719.2) comprising peptide from 293-431
formation of cellular clusters (hNEPT [1]; 100 ng/ml BMP-7, course of 12 days, controls became mesenchymal-like monolayers): induced the formation of abundant cellular clusters | average increase in DNA content from the time of attachment to day 12 (hNEPT [1]; BMP-7 group, n=2): 4.8 fold | C-peptide production induction vs. t=0 (hNEPT [2]; BMP-4 vs BMP-7 comparison, n=6, P=0.43): 156±32 fold | induction of C-peptide compared to t=0 (hNEPT [2]; BMP-7 alone, dorsomorphin experiment): 314.1±152 fold | induction of C-peptide compared to t=0 (hNEPT [2]; BMP-7 in the presence of dorsomorphin (DM)): 107.8±34.3 fold | C-peptide induction vs. t=0 (hNEPT [2]; THR-123 vs BMP-7 comparison, n=4, P=0.25): 261±102 fold | average increase in total C-peptide vs. the initial material (hNEPT [2]; day 12 vs day 0, 8 independent hNEPT preparations): two orders of magnitude

From patent US11466255B2, “Methods and compositions for converting non-endocrine pancreatic tissue into insulin-producing cells” (UNIVERSITY OF MIAMI, priority 2015, dated 2022)
